Our source for the Kd values is publication PMC4990970 (2016).

The target in assay [1] is AtBAG5-IQR (AtBAG5-long with Ile57, Gln58 and Arg62 substituted with alanine) (Arabidopsis thaliana, UniProt O65373 49-153, Ile57 to alanine | Gln58 to alanine | Arg62 to alanine). The assay is described as follows: ITC.
In another assay the target is AtBAG5-CaM (with Ca2+). The assay is described as follows: ITC; with Ca2+ (AtBAG5/holo-CaM complex).
In another assay the target is AtBAG5/holo-CaM (Arabidopsis thaliana (AtBAG5); Homo …). Description: ITC; with Ca2+; AtBAG5 pre-bound to holo-CaM. A general note: ITC needs no label: the signal is the heat of the interaction.

B1: ATPase domain of human Hsp70 (called Hsc70 in the results) (domain or fragment)
chain: not shown
In general, Kd refers to a measure of binding affinity in units of concentration. Take B1: the Kd was found to be 0.48 µM in assay [1] and 53.3 µM in the assay with AtBAG5-CaM (with Ca2+).

B2: ATPase domain of human Hsp70 (called Hsc70 in the results) (domain or fragment)
chain: not shown
modifications: CaM Ca2+-saturated (holo, 4 Ca2+; 10 mM CaCl2). AtBAG5-long limits are printed. CaM is full length with the initiator Met removed by convention. CaM species is not printed: Met144 in mature numbering fits vertebrate CaM rather than plant CaM (Val144).
In the case of B2, the Kd with AtBAG5/holo-CaM stood at 53.3 µM.
